Experimental findings from PMC5749897 (PLoS Pathogens, 2017) are described below.

The experiment has as its target T1, wild-type HCV E1E2 (genotype 1a, strain H77) expression construct with C-terminal V5 epitope tag (Hepatitis C virus genotype 1a, strain …, strain).
T1 construct: also called wild-type E1E2; E1E2 complex; source: HEK-293T, transfected, in fixed and permeabilised cells; not shown: V5, C-terminal, kept
As to the kind of experiment: flow cytometry on cells; E1E2 library clones in HEK-293T, 22 h, fixed in 4% paraformaldehyde, permeabilised with 0.1% saponin; stained with mAb (0.33 to 2.0 ug/ml) or CD81-LEL-Fc, Alexa Fluor 488 secondary antibody; Intellicyt HTFC; signal as percent of wild-type E1E2 after subtraction of mock. Conditions: one partner purified. For orientation: Flow cytometry measures light scatter and fluorescence of single cells or particles in a stream.

B1: monoclonal antibody AR3C (antibody, V domains shown)
VH: VQLLEQSGAEVKKPGSSVKVSCETSGGTFDNYALNWVRQAPGQGLEWIGGVVPLFGTTRNAQKFQGRVTISDDKSTGTGHMELRSLRSEDTAVYYCVRSVTPRYCGGGFCYGEFDYWGQGTLVTVSS
VL: EIELTQSPATLSVSPGERATLSCRASQSVSSNLAWYQQKPGQAPRLLIYGASTRATGIPARFSGSGSGTEFTLTVSRLEPEDSAVYFCQQYYRSPLTFGGGTKVEIK
notes: also called mAb AR3C
For the molecule B1, the binding result is given as “binds”.
